For experiment [1], the target named is TSH receptor (detergent solubilised TSH receptor preparation) (UniProt P16473). The experiment in a line: 125I-TSH, TSHR coated tubes; 200 µg/ml.
For experiment [2] the target is unchanged. The experiment in a line: 125I-TSH, TSHR coated tubes; 20 µg/ml.
The target is the same in experiment [3]. The experiment is described as follows: solubilised TSHR, PEG method; IgG 100 µg/ml; competitor 125I-16E5 Fab.

Sequence of TSH receptor (detergent solubilised TSH receptor preparation) (P16473 21-764 limits assumed): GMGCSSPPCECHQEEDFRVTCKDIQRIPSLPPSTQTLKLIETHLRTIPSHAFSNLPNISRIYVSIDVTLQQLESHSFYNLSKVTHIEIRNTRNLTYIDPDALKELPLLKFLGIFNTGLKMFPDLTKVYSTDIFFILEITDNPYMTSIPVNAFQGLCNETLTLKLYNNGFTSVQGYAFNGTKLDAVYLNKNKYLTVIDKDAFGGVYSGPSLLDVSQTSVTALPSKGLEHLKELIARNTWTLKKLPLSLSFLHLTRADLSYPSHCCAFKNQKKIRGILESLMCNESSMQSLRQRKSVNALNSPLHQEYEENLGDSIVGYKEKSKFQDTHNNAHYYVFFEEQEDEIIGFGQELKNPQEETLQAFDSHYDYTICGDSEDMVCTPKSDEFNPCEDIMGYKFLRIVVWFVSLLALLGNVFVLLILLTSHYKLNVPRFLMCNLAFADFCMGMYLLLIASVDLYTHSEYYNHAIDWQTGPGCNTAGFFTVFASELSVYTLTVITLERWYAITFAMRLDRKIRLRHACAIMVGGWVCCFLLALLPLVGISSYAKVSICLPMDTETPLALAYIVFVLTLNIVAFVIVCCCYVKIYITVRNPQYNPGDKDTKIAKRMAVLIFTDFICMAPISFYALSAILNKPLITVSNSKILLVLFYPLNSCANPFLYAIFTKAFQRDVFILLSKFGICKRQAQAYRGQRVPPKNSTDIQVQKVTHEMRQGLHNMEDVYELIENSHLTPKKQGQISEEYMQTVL

B1: 3B3 IgG (antibody, V domains shown)
VH: DVQLQQPGAELVKPGASVKLSCTTSGVNIKDTYMHWMKQRPEQGLEWIGRIDPANGNTKYDPKFRGKATITADTSSNTVYVQLRSLTSEDTAVYYCAYDGYWGQGTLVTVSA
VL: NIVMTQTPASLAVSLGQRATISCRASESVDSYGNNFMHWYQQKPGQSPRLLIYRASNLESGIPARFSGSGSRTDFTLTTNPVEADDVATYYCQQSHKDPLTFGAGTKLELK
Take B1: the % inhibition of TSH binding amounted to 30.7% in experiment [1] and 6.1% in experiment [2]. The molecule also had a % inhibition of 125I-16E5 Fab binding in experiment [3] of 8.8%.

For the origin of these results see patent US20050118638A1.
